For experiment [1], the target named is T1, Recombinant Human DLL4 (R&D Systems Cat#1506-D4/CF) (human, UniProt Q9NR61 27-524).
T1 construct: Bought recombinant protein; also called rHuman DLL4; delta-like protein 4
Description: MSD multispot ECL, antigen spotted, Fab 148.9 nM; blank spot 218.

In experiment [2] the target is T2, rHuman ErbB2/Fc Chimera, CF (R&D Systems Cat#1129-ER) (human, UniProt P04626 23-652).
T2 construct: Bought reagent; also called human epidermal growth factor 2 receptor
The description is as above.

The target of experiment [3] is T3, rHuman EGF R/Fc Chimera, CF (R&D Systems Cat#344-ER) (human, UniProt P00533 25-645).
T3 construct: Bought reagent; also called epidermal growth factor receptor
Described as above.

Experiment [4] addresses T4, rHuman HGF R/c-MET/Fc Chimera, CF (R&D Systems Cat#358-MT/CF) (human, UniProt P08581 25-932).
T4 construct: Bought reagent; also called HGF R/Fc; hepatocyte growth factor receptor
The experiment is described as above.

Experiment [5] deals with T5, rHuman Notch-1/Fc Chimera, CF (R&D Systems Cat#3647-TK) (human, UniProt P46531 19-526).
T5 construct: Bought reagent
The description is as above.

Experiment [6] addresses T6, rHuman CD44/Fc Chimera, CF (R&D Systems Cat#3660-CD) (human, UniProt P16070 21-220).
T6 construct: Bought reagent
The experiment is described as above.

Experiment [7] has as its target T7, rHuman IGF-1 sR, (IGF-1 sR), CF (R&D Systems Cat#391-GR) (human, UniProt P08069 31-932).
T7 construct: Bought soluble receptor; also called insulin-like growth factor-1 soluble receptor
The description is as above.

For experiment [8], the target named is T8, rHuman Erythropoietin R/Fc Chimera, CF (R&D Systems Cat#963-ER) (human, UniProt P19235 25-250).
T8 construct: Bought recombinant protein; also called EPO R; EPO R/Fc; Fc part of the bought chimera not given
T8 sequence (looked up): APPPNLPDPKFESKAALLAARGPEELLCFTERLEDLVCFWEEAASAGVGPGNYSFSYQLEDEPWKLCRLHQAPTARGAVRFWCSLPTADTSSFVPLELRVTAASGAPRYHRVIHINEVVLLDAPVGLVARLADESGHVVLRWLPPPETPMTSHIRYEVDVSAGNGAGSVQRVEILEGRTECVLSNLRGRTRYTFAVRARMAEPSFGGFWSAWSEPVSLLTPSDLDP
As to the kind of experiment: ECL Multispot (MSD), antigen spotted; Fab 50 (µM); blank 386.

Experiment [9] has as its target T9, Recombinant Human DLL4 (R&D Systems Cat#1506-D4/CF) (human, UniProt Q9NR61 27-529).
T9 construct: Bought recombinant protein; also called delta-like protein 4; rHuman DLL4
The experiment is described as above.

The target of experiment [10] is T10, rHuman ErbB2/Fc Chimera, CF (R&D Systems Cat#1129-ER) (human, UniProt P04626 23-652).
T10 construct: Bought recombinant protein; Fc part of the bought chimera not given
The description is as above.

Experiment [11] addresses T11, rHuman EGF R/Fc Chimera, CF (R&D Systems Cat#344-ER) (human, UniProt P00533 25-645).
T11 construct: Bought recombinant protein; Fc part of the bought chimera not given
The description is as above.

Experiment [12] concerns the target T12, rHuman HGF R/c-MET/Fc Chimera, CF (R&D Systems Cat#358-MT/CF) (human, UniProt P08581 25-932).
T12 construct: Bought recombinant protein; also called HGF R/Fc; Fc part of the bought chimera not given
Described as above.

The target of experiment [13] is T13, rHuman Notch-1/Fc Chimera, CF (R&D Systems Cat#3647-TK) (human, UniProt P46531 19-526).
T13 construct: Bought recombinant protein; Fc part of the bought chimera not given
The description is as above.

The target in experiment [14] is T14, rHuman IGF-1 sR, CF (R&D Systems Cat#391-GR) (human, UniProt P08069 31-932).
T14 construct: Bought recombinant soluble receptor; also called insulin-like growth factor-1 soluble receptor
The description is as above.

The target of experiment [15] is T15, Recombinant Human DLL4 (R&D Systems Cat#1506-D4/CF) (human, UniProt Q9NR61 27-524).
T15 construct: Bought recombinant protein; also called rHuman DLL4; delta-like protein 4
As to the kind of experiment: MSD Multispot ECL, antigen spotted on plate, Fab at 240 nM; blank spot 316.

Experiment [16] concerns the target T16, rHuman Notch-1/Fc Chimera, CF (R&D Systems Cat#3647-TK) (human, UniProt P46531 19-526).
T16 construct: Bought Fc chimera; Fc part of the bought chimera not given
The description is as above.

The target in experiment [17] is T17, rHuman CD44/Fc Chimera, CF (R&D Systems Cat#3660-CD) (human, UniProt P16070 21-220).
T17 construct: Bought Fc chimera; Fc part of the bought chimera not given
The description is as above.

The target in experiment [18] is T18, rHuman P-Cadherin/Fc Chimera, CF (R&D Systems Cat#861-PC) (human, UniProt P22223 108-654).
T18 construct: Bought Fc chimera; Fc part of the bought chimera not given
The experiment is described as above.

The target of experiment [19] is T19, rHuman Erythropoietin R/Fc Chimera, CF (R&D Systems Cat#963-ER) (human, UniProt P19235 25-250).
T19 construct: Bought Fc chimera; also called EPO R/Fc; Epo R; Fc part of the bought chimera not given
T19 sequence (looked up): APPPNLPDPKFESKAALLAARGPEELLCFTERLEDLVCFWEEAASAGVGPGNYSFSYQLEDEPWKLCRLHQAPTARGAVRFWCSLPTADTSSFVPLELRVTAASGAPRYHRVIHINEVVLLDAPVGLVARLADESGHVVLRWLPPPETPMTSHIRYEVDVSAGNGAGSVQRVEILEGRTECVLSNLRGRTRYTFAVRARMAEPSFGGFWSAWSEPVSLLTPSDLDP
Described as above.

B1: Fab VH1-46_IGHD6-6*01_IGHJ1*01 & L6_IGKJ1*01 (Fab, V domains shown)
VH: QVQLVQSGAEVKKPGASVKVSCKASGYTFTSYYMHWVRQAPGQGLEWMGIINPSGGSTSYAQKFQGRVTMTRDTSTSTVYMELSSLRSEDTAVYYCAREEYSSSSAEYFQHWGQGTLVTVSS
VL: not shown
notes: Only variable domains are tied to the molecule; Tested as a Fab made in E. coli: heavy chain from Plasmid A (CH1 constant region, His6 and Flag tags), kappa light chain from Plasmid C (kappa CL); also called parent Hit Fab against DLL4; VH1-46_IGHD6-6*01_IGHJ1*01 & L6_IGKJ1*01 (parental)
As to B1, the ECL signal in experiment [1] was determined as 16300 ECL signal; in [2], 247 ECL signal; in experiment [3], 290 ECL signal; in [4], 205 ECL signal; in experiment [5], 375 ECL signal; in experiment [6] it was 348 ECL signal. The molecule further showed an ECL signal in experiment [7] of 322 ECL signal.

B2: Fab VH1-46_IGHD6-6*01_IGHJ1*01 S102A/S103P/S104F (APF) & L6_IGKJ1*01 (Fab, V domains shown)
VH: QVQLVQSGAEVKKPGASVKVSCKASGYTFTSYYMHWVRQAPGQGLEWMGIINPSGGSTSYAQKFQGRVTMTRDTSTSTVYMELSSLRSEDTAVYYCAREEYAPFSAEYFQHWGQGTLVTVSS
VL: not shown
notes: Tested as a Fab made in E. coli: VH cloned in Plasmid A (CH1 constant region, His6 and Flag tags), VL in Plasmid C (kappa constant region); also called H:APF & L:wt; APF triple mutant
Regarding B2, the ECL signal in experiment [8] worked out at 768; in experiment [9], 80000; in experiment [10], 672; in experiment [11], 585; in experiment [12], 525; in experiment [13], 509. Further, the ECL signal in experiment [14] worked out at 558.

B3: Fab VH6-1_IGHD3-3*01_IGHJ4*01 & V4-3_IGLJ4*01 (Fab, V domains shown)
VH: QVQLQQSGPGLVKPSQTLSLTCAISGDSVSSNSAAWNWIRQSPSRGLEWLGRTYYRSKWYNDYAVSVKSRITINPDTSKNQFSLQLNSVTPEDTAVYYCAREYYDFWSGYYTDYFDYWGQGTLVTVSS
VL: QPVLTQPTSLSASPGASARLTCTLRSGINLGSYRIFWYQQKPESPPRYLLSYYSDSSKHQGSGVPSRFSGSKDASSNAGILVISGLQSEDEADYYCMIWHSSASFVFGGGTQLIIL
notes: Tested as a purified germline Fab made in E. coli; The VH was cloned into plasmid A (CH1 constant region, His6 and Flag tags) and the lambda VL into plasmid E (lambda CL)
As for B3, the ECL signal was found to be 1270 in experiment [15]; 368 in experiment [16]; 470 in [17]; 383 in experiment [18]; 478 in [19].

The record behind these values is US20120316071A1 (published 2012).
